Source: PMC7859635, “The “C3aR Antagonist” SB290157 is a Partial C5aR2 Agonist” (Frontiers in Pharmacology, 2021)

How the values were obtained:
[1] = molecular target: human C3aR on Chinese hamster ovary cells stably expressing C3aR (CHO-C3aR) (human) (UniProt Q16581)
[2] = molecular target: human C3aR of human monocyte-derived macrophages (HMDMs) (human (endogenous in HMDMs)) (UniProt Q16581)
C5aR2 = molecular target: T1, C5aR2 (Homo sapiens, UniProt Q9P296); test: BRET β-arrestin […] recruitment to C5aR2 in transfected HEK293 cells (partial agonist); format: cell-based
T1 construct: human C5aR2-Venus
T1 sequence (Q9P296 whole entry): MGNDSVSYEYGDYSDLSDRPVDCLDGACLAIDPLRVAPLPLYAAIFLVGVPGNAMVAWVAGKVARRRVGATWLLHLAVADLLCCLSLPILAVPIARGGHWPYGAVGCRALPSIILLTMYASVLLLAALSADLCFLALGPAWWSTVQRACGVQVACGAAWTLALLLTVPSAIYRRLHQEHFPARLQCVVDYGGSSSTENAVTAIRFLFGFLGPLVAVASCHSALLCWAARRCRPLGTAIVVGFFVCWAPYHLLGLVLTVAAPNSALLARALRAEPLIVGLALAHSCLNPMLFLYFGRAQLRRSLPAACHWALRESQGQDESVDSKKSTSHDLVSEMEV

purified human C3a, sequence (P01024 672-748): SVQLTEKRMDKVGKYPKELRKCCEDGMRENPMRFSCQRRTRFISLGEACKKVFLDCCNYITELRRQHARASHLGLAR
human C3aR on Chinese hamster ovary cells stably expressing C3aR (CHO-C3aR) (human), sequence (Q16581 whole entry): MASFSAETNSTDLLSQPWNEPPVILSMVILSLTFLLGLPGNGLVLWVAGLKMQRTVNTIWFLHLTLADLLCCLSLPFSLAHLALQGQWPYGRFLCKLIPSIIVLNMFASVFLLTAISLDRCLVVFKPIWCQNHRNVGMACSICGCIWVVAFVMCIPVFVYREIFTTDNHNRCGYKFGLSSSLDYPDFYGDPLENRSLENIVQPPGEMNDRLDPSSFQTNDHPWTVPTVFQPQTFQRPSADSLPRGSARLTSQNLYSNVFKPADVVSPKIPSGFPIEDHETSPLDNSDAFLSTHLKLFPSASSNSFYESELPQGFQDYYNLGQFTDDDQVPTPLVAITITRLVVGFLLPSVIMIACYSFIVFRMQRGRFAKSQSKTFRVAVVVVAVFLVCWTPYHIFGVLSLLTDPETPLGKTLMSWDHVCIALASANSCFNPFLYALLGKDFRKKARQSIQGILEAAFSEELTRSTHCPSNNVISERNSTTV
human C3aR of human monocyte-derived macrophages (HMDMs) (human (endogenous in HMDMs)), sequence (Q16581 whole entry): as above

Row | phosphorylation of ERK1/2 in CHO-C3aR cells (AlphaLISA, 10 min), EC50 [1] | phosphorylation of ERK1/2 in HMDMs (AlphaLISA, 10 min), EC50 [2] | EC50 (C5aR2) | Compound
1 | 0.39 nM | 0.21 nM |  | purified human C3a (from UniProt P01024 672-748) (ligand)
2 |  |  | 16100 nM | N=C(N)NCCC[C@H](NC(=O)COCC(c1ccccc1)c1ccccc1)C(=O)O [SB290157]
